Test results published in publication PMC11475020.

Biological target: T1, IscR-His (Caulobacter crescentus NA1000) (UniProt A0A0H3C7T4)
T1 sequence: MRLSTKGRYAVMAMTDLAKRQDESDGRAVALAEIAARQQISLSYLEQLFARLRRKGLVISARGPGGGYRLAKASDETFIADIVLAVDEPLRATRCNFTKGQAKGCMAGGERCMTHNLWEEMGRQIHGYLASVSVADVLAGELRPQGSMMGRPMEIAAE
Experiment: EMSA
Conditions: 10 mM HEPES, 40 mM KCl, 1 mM MgCl2, 1 mM MnCl2, 5% glycerol, 0.1 mg/ml salmon sperm DNA, 500 ng probe, pH not stated, 30 min room temperature

“AAACCACTCCCGGAATCACGCGCAGATCGGAAGGGACACACAGGTTCCGCCTCCGCGCCGCGTACCACCCTGAACGACTGGAGGGGGGCGACCGGCCGCTTCTTAGCGCCGCCGTCGACCAACGTCCATGTCACGTGCGGGGTCTTGGCGTGTTGAGAGCTGTTCTCATTAAGGATCTGGCGATTTCGCGCGGTGAGCGAACGCTGTTTTC (double strand) [acn regulatory region]” was tested, and the binding was “binds”.
